Test results from PMC6274577 (2016).
Where “and” joins values, the source holds several entries; their conditions need not be identical. Equal values may be shown once. Values belong to the molecule of their own block, whether it stands above or below them.

Assays:
[1] = biological target: recombinant extracellular domain of human interleukin-11 receptor subunit α (M1-V363) with a fused polyhistidine tag at the C-terminus (human) (UniProt Q14626)
[2] = biological target: IL-11Rα (Mus musculus) (UniProt Q64385); experiment: cell binding; conditions: cited from earlier work
IL-11Rα (Mus musculus), sequence (Q64385 24-372): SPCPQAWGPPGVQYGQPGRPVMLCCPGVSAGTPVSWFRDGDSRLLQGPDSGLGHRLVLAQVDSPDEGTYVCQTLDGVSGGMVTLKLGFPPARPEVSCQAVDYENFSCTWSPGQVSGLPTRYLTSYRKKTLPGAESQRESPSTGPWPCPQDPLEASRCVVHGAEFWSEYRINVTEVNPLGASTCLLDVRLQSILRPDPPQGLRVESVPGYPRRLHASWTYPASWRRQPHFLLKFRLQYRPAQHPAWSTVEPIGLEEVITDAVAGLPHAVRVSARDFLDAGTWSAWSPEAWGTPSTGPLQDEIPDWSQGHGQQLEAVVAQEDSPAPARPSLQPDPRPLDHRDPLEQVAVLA

[3] = biological target: sIL-11Rα ECD (Homo sapiens) (UniProt Q14626); experiment: SPR; conditions: cited from earlier work
[4] = biological target: murine recombinant interleukin-11 (rIL-11), Mus musculus, mature protein lacking Pro1 (Mus musculus) (UniProt P47873); experiment: SPR; biotinylated rIL-11 immobilised on NeutrAvidin NLC sensor chip (up to 2000 RU); 5-80 nM sIL-11Rα as analyte; 25 °C; PBS, 0.05% TWEEN 20, pH 7.4; heterogeneous ligand model (two ligand populations)
[5] = biological target: macaque recombinant interleukin-11 (rIL-11), Macaca fascicularis, mature protein lacking Pro1 (Macaca fascicularis) (UniProt P20808); experiment: as above
[6] = biological target: T1, sIL-11Rα ECD (Homo sapiens, UniProt Q14626); experiment: SPR
T1 chain: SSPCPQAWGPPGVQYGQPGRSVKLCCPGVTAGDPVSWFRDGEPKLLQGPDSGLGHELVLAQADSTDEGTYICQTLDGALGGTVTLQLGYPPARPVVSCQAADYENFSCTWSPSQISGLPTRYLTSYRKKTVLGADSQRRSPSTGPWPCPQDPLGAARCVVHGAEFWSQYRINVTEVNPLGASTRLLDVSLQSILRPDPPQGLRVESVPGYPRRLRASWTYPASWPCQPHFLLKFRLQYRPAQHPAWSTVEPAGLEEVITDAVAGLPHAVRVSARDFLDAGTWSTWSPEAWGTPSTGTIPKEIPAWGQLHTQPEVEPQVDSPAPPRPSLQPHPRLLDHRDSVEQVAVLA

EC50 of STAT3 activation (SEAP secretion, QUANTI-Blue assay) in HEK-Blue IL-6 cells stably transfected with human IL-11Rα gene [1]: 0.006 nM
Molecule: macaque recombinant interleukin-11 (rIL-11), Macaca fascicularis, mature protein lacking Pro1 (from UniProt P20808 23-199) (ligand)

EC50 of STAT3 activation (SEAP secretion, QUANTI-Blue assay) in HEK-Blue IL-6 cells stably transfected with human IL-11Rα gene [1]: 0.084 nM
Molecule: murine recombinant interleukin-11 (rIL-11), Mus musculus, mature protein lacking Pro1 (from UniProt P47873 23-199) (ligand)

Kd1 (KD, ligand population 1) [4]: 2.2 nM | Kd2 (KD, ligand population 2) [4]: 14.6 nM | kd1 (koff, ligand population 1) [4]: 0.0007 s⁻¹ | kd2 (koff, ligand population 2) [4]: 0.0061 s⁻¹ | Kd1 (KD, ligand population 1) [5]: 4.2 nM | Kd2 (KD, ligand population 2) [5]: 8.9 nM | kd1 (koff, ligand population 1) [5]: 0.000815 s⁻¹ | kd2 (koff, ligand population 2) [5]: 0.0038 s⁻¹
B1: recombinant extracellular domain of human interleukin-11 receptor subunit α (M1-V363) with a fused polyhistidine tag at the C-terminus (receptor)
chain: SSPCPQAWGPPGVQYGQPGRSVKLCCPGVTAGDPVSWFRDGEPKLLQGPDSGLGHELVLAQADSTDEGTYICQTLDGALGGTVTLQLGYPPARPVVSCQAADYENFSCTWSPSQISGLPTRYLTSYRKKTVLGADSQRRSPSTGPWPCPQDPLGAARCVVHGAEFWSQYRINVTEVNPLGASTRLLDVSLQSILRPDPPQGLRVESVPGYPRRLRASWTYPASWPCQPHFLLKFRLQYRPAQHPAWSTVEPAGLEEVITDAVAGLPHAVRVSARDFLDAGTWSTWSPEAWGTPSTGTIPKEIPAWGQLHTQPEVEPQVDSPAPPRPSLQPHPRLLDHRDSV

Kd [6]: 8.9 nM and 4.2 nM
B2: IL-11 (protein)
chain: PGPPPGSPRASPDPRAELDSTVLLTRSLLEDTRQLTIQLKDKFPADGDHNLDSLPTLAMSAGALGALQLPSVLTRLRADLLSYLRHVQWLRRAMGSSLKTLEPELGTLQTRLDRLLRRLQLLMSRLALPQLPPDPPAPPLAPPSSTWGGIRAAHAILGGLHLTLDWAVRGLLLLKTRL

The remaining lines, values behind:

Molecule: IL-11 (from UniProt P47873)
Kd [2]: 10 nM

Molecule: IL-11 (from UniProt P20809)
Kd [3]: 21.9 nM and 7 nM
